{"source": "paper PMC6599224", "molecular_target": "T1, IscR-WT (Pseudomonas aeruginosa PAO1) (UniProt Q9HXI7)", "T1 sequence": "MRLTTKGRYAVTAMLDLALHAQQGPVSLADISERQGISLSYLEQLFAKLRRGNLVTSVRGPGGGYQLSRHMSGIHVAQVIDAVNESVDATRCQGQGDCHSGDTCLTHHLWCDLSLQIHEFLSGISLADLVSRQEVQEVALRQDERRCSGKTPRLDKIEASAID", "experiment": "DNase I footprinting", "conditions": "EMSA: 20 mM Tris-HCl pH 8.0, 50 mM KCl, 4 mM MgCl2, 0.5 mM EDTA, 0.02 mg/ml BSA, 5 mM DTT, 10% glycerol, 200 ng poly(dI-dC), 3 fmol probe in 25 ul, 25 C …"}
{"sequence": "GCCTTTCTGCGGGAGCTGGCCATCGACGTTGACCGGGTTGCCCTTGAGAGTCACTTGAGCCATTGCGTTGATCCTTCTAGTCAGTGAGAAGCCGCCGGCCCTGTGGCCGGCGGCGGAAGCATTCGGGGCCGGCGACGATGCTAGCACGCTTTACCCGAGCGAAAACCTCGGGTTTGAGCATCGCCGTCCCCCGAGGCTCAACTCCTGGCCTTGGCGAAATACTCCCGGGTC (double strand) [tpx promoter]", "values": [{"measurement": "binding", "result": "binds"}]}
